Data reported in the supplement of paper PMC12764529.
± gives the half width of the 95% confidence interval.

What was measured:
[1] = folding stability dG unfold from trypsin proteolysis; higher = more stable
Protocol: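 Folding stability of de novo designed mini-proteins (<80 aa, no Cys; designed by TrROS, TrMRF, ProteinMPNN and the joint model) was measured by cDNA display proteolysis with trypsin and chymotrypsin. Each protease was used at 11 concentrations in a threefold dilution series plus a no-protease condition. K50 was inferred by Bayesian fitting of sequencing counts, and dG unfold was derived against a sequence-predicted unfolded-state K50 (Tsuboyama et al. method). Sequences shown include variable-length N-terminal GS-type padding (SAGGSAGG...) inside a display construct carrying a PA tag. Rows were kept only if the AF2 dimer inter-PAE was >15, to exclude likely homo-oligomers.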

[2] = folding stability dG unfold (combined trypsin and chymotrypsin); higher = more stable
How it was run: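 How resistant each design was to proteolysis was captured as K50, inferred by Bayesian fitting of sequencing counts. Unfolding free energy was then derived relative to a sequence-predicted unfolded-state K50 and a shared folded-state K50, per protease or combined. Digestion used trypsin and chymotrypsin at 11 threefold-diluted concentrations plus a no-protease condition, on mini-proteins under 80 residues without cysteine in a PA-tagged cDNA display construct. Designs were kept only when AlphaFold2 dimer inter-PAE was above 15.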

SAGGSAGGSAMLTKTIKLPNGKPASVTITTLSEGSSPGSSVDPKLVINADPNIPKEIVDKLLSAGGSAGGSA [r18_272_JUSTAS]
folding stability dG unfold [1]: -0.624 ± 0.077 kcal/mol
folding stability dG unfold [2]: -0.685 ± 0.13 kcal/mol

SAGGSAGGSAMTPDELKDNFPNMPVEPRPLNNSTQWKIEMPGGMRIEIQYDPGKPKIDIEEGSAGGSAGGSA [r18_13_TrROS]
folding stability dG unfold [1]: -0.039 ± 0.064 kcal/mol
folding stability dG unfold [2]: -0.622 ± 0.23 kcal/mol

SAGGSAGGSAPLEELLDVIRSVPANTRAEFPIIVETETGYVPYIARVENPEPGGALIEIEKASAGGSAGGSA [r18_493_TrMRF]
folding stability dG unfold [1]: -0.258 ± 0.11 kcal/mol
folding stability dG unfold [2]: < -1 kcal/mol

SAGGSAGGSAPPPLPPDAVVTIPNPGSLEEVKKLAEKLREEHGIKKIKITVEPNSVTLTVASAGGSAGGSAG [r3_73_JUSTAS]
folding stability dG unfold [1]: 0.476 ± 0.15 kcal/mol
folding stability dG unfold [2]: < -1 kcal/mol

SAGGSAGGSASLPEKLAQEAKEKILKENPDVEVTEIVVTKLPPEKYTVTIKTPDGKTETIPLSAGGSAGGSA [r18_423_JUSTAS]
folding stability dG unfold [1]: -0.00229 ± 0.023 kcal/mol
folding stability dG unfold [2]: -0.308 ± 0.1 kcal/mol

SAGGSAGGSASSPSSPVKVTVTVTAPDSLVKTITVTKTPEGVIDLVLPSDIPSDYKITIIESAGGSAGGSAG [r3_44_JUSTAS]
folding stability dG unfold [1]: 0.0537 ± 0.08 kcal/mol
folding stability dG unfold [2]: -0.699 ± 0.51 kcal/mol

SAGGSAGGSASVSSPERFTVPRPDGTPVEVTLVEPEKGYYEVTDPATGERTRLPIEDIPPVSAGGSAGGSAG [r3_213_JUSTAS]
folding stability dG unfold [1]: -0.607 ± 0.12 kcal/mol
folding stability dG unfold [2]: < -1 kcal/mol

SAGGSAGGSATVDEVIKEAREEAREEHPNYPPGQTHTIKIRDPDNGEKVKIRFTNDGKIEISAGGSAGGSAG [r3_441_TrROS]
folding stability dG unfold [1]: -0.0324 ± 0.057 kcal/mol
folding stability dG unfold [2]: < -1 kcal/mol

SAGGSAGGSDILKNLPPGHKRVEIMFIPNMPMEKMKRMAKEIAPILRKRGVDVEIKVIPPDEMSAGGSAGGS [r12_456_TrROS]
folding stability dG unfold [1]: 0.859 ± 0.17 kcal/mol
folding stability dG unfold [2]: 0.118 ± 0.36 kcal/mol

SAGGSAGGSGMEEAIEKAKKEILEKNPDLPPNAVVNEPILVKDPSTDEEYVIPVTFTIPENNLSAGGSAGGS [r12_591_JUSTAS]
folding stability dG unfold [1]: -0.137 ± 0.063 kcal/mol
folding stability dG unfold [2]: -0.61 ± 0.67 kcal/mol

SAGGSAGGSGMKPAKVLKVEEFFDPKNNTSFKKVEAELPDRKITLELPPGEPVDENSTILVEESAGGSAGGS [r20_49_JUSTAS]
folding stability dG unfold [1]: -0.428 ± 0.28 kcal/mol
folding stability dG unfold [2]: -0.759 ± 0.47 kcal/mol

SAGGSAGGSGMVSSVVKHTVELNVPENRPNAEELAAELRAAHPGVTVVEITETPNKAVITVEESAGGSAGGS [r12_454_JUSTAS]
folding stability dG unfold [1]: 0.296 ± 0.062 kcal/mol
folding stability dG unfold [2]: < -1 kcal/mol

SAGGSAGGSIEIDHDRDPGTNRYTATVEIPDPDGKGLEVEVQMNGDPEDAAKTAAKTVLEEFNSAGGSAGGS [r20_33_TrROS]
folding stability dG unfold [1]: 0.07 ± 0.27 kcal/mol
folding stability dG unfold [2]: < -1 kcal/mol

SAGGSAGGSKIPIHIWVPPGGSPKKAKERIRRYIREQMPPGNKDMPIDDIKIDVHVMPPGQPVSAGGSAGGS [r12_384_TrROS]
folding stability dG unfold [1]: -0.427 ± 0.9 kcal/mol
folding stability dG unfold [2]: < -1 kcal/mol

SAGGSAGGSMDPGQPMEFIQIYPDPDGNLEIHVSEIRIDPDGGAKVTEVEPKRIDDAEDLAKFSAGGSAGGS [r12_386_TrROS]
folding stability dG unfold [1]: -0.752 ± 0.19 kcal/mol
folding stability dG unfold [2]: < -1 kcal/mol

SAGGSAGGSMMKVRVYARNKDGEEVPVEEIEIPPEVETPEEALKLAEELAKKEGVEEVRVEIESAGGSAGGS [r12_569_TrROS_Hall]
folding stability dG unfold [1]: -0.13 ± 0.19 kcal/mol
folding stability dG unfold [2]: -0.609 ± 0.38 kcal/mol

SAGGSAGGSMRFVTIKVPGPDTTFTFDTDGDEALEAKLAELEKKHPEIKKENIEKLEVNPGPGSAGGSAGGS [r12_852_JUSTAS]
folding stability dG unfold [1]: -0.345 ± 0.52 kcal/mol
folding stability dG unfold [2]: < -1 kcal/mol

SAGGSAGGSMSTSESVTVTFPDGSVRKATILKQEKLPNGTVPVEIVDEGGTSVGTRNWTVTAESAGGSAGGS [r12_735_JUSTAS]
folding stability dG unfold [1]: -0.456 ± 0.28 kcal/mol
folding stability dG unfold [2]: < -1 kcal/mol

SAGGSAGGSMVLIEIYFKGPEKPIVFPAEGPEEVVEKLLELVEENPELGLDNIAEIRAYPGEESAGGSAGGS [r12_852_TrMRF]
folding stability dG unfold [1]: 0.425 ± 0.074 kcal/mol
folding stability dG unfold [2]: 0.0303 ± 0.28 kcal/mol

SAGGSAGGSMVLIIVPPSKPELAEEKAKELAEKGEIKEYEIKTVSSEEEAEKLAKNYEKVILESAGGSAGGS [r12_679_JUSTAS]
folding stability dG unfold [1]: -0.171 ± 0.083 kcal/mol
folding stability dG unfold [2]: -0.324 ± 0.28 kcal/mol

SAGGSAGGSMVTTSIDPSGTAKITVTDGGGVPVSTATIPVDPNAILTYDPNNSSISTFSPVSSSAGGSAGGS [r12_1002_JUSTAS]
folding stability dG unfold [1]: 0.519 ± 0.032 kcal/mol
folding stability dG unfold [2]: -0.442 ± 0.24 kcal/mol

SAGGSAGGSMYRYTVTFPNTGTVLEKEFESLEEAKKYIPKDRPIKEIKVEPVEPPVSPEVLLVSAGGSAGGS [r12_851_JUSTAS]
folding stability dG unfold [1]: -0.217 ± 0.18 kcal/mol
folding stability dG unfold [2]: -0.651 ± 0.26 kcal/mol

SAGGSAGGSPDNITFKVPDGPVRIENGNNEQEFPPGKTQTIPPKNPNNMRIEAFPPNIIKITPSAGGSAGGS [r20_150_TrROS]
folding stability dG unfold [1]: -0.793 ± 0.45 kcal/mol
folding stability dG unfold [2]: < -1 kcal/mol
